Laboratory results from the supplement of paper PMC10065799, “High-throughput profiling of sequence recognition by tyrosine kinases and SH2 domains using bacterial peptide display” (eLife, 2023).

Assays:
[1] = biological target: Grb2 SH2 (UniProt P62993); experiment: SH2 binding enrichment of the phosphorylated peptide, bacterial display (enrichment ratio); higher = better substrate or ligand; peptides without Tyr show the background
[2] = biological target: SHP2-C SH2; experiment: as above
[3] = biological target: c-Src SH2; experiment: as above
[4] = tested on: c-Src; experiment: phosphorylation enrichment, bacterial display (enrichment ratio); higher = better substrate or ligand; peptides without Tyr show the background
[5] = tested on: Fer (mouse); experiment: as above
[6] = tested on: AncSZ; experiment: as above
[7] = biological target: FGFR3 (UniProt P22607); experiment: as above
[8] = biological target: FGFR1 (UniProt P11362); experiment: as above
[9] = tested on: c-Abl (mouse); experiment: as above
[10] = biological target: Fyn (UniProt P06241); experiment: as above
[11] = biological target: Hck (UniProt P08631); experiment: as above
[12] = biological target: EPHB2 (UniProt P29323); experiment: as above
[13] = biological target: EPHB1 (UniProt P54762); experiment: as above
[14] = biological target: Jak2 (UniProt O60674); experiment: as above
[15] = biological target: Fes (UniProt P07332); experiment: as above
[16] = biological target: MERTK (UniProt Q12866); experiment: as above
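For SH2 binding enrichment of the phosphorylated peptide, bacterial display in this document: peptide library displayed on the E. coli surface as eCPX fusions, selected cells deep-sequenced, score is each peptide's frequency after selection divided by its frequency in the input.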
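For phosphorylation enrichment, bacterial display in this document: 11-residue human phosphosite peptides and single-mutation variants displayed on the E. coli surface, counted by deep sequencing, each peptide's frequency after selection divided by its frequency in the unselected input library; frequency after pTyr selection over input frequency; kinase dosed for 20-30% of maximal phosphorylation in three min.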

FGFR1, sequence (P11362 whole entry, looked up): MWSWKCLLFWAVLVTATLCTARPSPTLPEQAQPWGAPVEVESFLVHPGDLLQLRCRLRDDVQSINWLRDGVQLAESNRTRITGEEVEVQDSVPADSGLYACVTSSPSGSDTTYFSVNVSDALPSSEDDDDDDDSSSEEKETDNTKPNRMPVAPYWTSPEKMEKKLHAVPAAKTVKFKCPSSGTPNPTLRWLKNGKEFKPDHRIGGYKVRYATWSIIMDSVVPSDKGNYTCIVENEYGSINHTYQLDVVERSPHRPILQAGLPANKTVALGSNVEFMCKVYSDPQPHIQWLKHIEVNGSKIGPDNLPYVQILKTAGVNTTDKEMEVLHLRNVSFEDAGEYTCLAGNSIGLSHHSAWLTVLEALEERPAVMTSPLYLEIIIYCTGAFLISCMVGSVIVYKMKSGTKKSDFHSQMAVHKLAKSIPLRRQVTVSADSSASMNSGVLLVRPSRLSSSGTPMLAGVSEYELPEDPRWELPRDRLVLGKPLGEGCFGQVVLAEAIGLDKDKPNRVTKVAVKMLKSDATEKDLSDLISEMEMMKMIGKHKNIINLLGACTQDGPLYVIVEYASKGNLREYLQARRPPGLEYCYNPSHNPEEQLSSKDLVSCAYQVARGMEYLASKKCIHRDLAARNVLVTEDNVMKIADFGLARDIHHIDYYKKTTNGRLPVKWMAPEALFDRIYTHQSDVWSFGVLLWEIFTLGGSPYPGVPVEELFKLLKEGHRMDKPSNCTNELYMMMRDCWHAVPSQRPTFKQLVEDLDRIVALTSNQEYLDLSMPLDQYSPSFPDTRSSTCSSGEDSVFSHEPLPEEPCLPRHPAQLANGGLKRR
Hck, sequence (P08631 whole entry, looked up): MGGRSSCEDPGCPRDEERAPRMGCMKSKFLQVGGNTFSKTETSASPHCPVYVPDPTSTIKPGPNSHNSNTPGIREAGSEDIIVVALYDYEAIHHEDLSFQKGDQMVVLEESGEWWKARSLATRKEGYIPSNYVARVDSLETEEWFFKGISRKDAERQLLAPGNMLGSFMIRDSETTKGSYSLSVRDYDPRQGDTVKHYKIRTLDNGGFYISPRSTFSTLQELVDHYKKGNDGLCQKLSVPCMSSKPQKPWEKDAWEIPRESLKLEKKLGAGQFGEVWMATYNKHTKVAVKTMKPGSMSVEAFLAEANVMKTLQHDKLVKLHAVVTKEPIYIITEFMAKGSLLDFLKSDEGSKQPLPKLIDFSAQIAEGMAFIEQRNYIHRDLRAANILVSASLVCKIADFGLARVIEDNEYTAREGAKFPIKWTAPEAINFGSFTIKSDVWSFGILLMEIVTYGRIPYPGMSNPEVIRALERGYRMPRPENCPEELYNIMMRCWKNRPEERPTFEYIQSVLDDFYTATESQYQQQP
MERTK, sequence (Q12866 whole entry, looked up, the tested form may be a part): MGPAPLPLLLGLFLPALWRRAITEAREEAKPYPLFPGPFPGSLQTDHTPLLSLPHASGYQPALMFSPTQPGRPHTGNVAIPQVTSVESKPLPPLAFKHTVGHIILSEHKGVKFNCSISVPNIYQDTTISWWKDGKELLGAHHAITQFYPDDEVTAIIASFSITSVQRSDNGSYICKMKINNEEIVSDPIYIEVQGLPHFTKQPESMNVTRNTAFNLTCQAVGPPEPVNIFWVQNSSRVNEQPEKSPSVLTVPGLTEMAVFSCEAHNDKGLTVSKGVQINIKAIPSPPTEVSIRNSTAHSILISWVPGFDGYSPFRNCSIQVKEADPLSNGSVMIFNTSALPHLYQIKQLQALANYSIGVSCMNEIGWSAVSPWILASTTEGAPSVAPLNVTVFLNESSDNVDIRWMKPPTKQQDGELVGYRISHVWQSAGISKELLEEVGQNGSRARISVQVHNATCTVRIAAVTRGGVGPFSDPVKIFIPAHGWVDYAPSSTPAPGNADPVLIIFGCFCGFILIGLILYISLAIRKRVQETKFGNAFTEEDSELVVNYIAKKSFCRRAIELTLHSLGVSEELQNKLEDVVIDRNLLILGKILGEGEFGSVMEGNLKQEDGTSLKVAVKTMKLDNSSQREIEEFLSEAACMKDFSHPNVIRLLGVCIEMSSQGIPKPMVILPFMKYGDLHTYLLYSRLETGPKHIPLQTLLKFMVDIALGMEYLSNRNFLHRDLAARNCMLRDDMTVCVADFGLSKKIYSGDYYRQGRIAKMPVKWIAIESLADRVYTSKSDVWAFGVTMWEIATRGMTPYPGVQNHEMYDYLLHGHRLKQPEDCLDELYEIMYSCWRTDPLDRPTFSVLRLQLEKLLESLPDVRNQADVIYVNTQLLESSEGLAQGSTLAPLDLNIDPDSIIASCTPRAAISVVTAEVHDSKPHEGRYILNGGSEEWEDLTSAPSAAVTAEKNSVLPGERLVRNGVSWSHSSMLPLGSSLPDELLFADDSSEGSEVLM
EPHB1, sequence (P54762 whole entry, looked up): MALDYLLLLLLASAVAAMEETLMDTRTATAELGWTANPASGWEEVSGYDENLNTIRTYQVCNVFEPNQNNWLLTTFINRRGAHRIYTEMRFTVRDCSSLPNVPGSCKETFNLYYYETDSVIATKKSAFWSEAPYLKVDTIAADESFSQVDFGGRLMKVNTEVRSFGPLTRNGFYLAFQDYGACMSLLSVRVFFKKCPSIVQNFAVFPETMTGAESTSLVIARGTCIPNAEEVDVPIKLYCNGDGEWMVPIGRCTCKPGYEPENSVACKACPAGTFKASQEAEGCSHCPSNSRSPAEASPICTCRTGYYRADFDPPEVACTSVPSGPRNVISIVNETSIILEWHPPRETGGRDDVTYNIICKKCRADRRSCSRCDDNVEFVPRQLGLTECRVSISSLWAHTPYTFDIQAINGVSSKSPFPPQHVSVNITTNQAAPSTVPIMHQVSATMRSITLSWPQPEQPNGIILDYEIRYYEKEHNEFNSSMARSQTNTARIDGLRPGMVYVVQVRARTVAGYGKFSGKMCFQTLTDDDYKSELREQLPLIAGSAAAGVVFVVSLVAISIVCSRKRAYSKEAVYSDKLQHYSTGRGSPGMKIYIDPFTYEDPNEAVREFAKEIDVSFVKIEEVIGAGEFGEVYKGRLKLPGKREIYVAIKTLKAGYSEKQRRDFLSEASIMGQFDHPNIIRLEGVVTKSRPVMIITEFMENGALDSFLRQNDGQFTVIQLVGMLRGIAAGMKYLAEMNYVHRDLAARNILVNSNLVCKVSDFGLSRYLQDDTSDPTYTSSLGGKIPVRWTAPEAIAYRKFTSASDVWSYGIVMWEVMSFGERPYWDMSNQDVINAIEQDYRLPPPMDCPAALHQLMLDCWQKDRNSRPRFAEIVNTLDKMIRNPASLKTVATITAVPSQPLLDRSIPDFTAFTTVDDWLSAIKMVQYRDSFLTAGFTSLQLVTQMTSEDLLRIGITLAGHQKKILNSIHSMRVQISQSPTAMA
EPHB2, sequence (P29323 whole entry, looked up): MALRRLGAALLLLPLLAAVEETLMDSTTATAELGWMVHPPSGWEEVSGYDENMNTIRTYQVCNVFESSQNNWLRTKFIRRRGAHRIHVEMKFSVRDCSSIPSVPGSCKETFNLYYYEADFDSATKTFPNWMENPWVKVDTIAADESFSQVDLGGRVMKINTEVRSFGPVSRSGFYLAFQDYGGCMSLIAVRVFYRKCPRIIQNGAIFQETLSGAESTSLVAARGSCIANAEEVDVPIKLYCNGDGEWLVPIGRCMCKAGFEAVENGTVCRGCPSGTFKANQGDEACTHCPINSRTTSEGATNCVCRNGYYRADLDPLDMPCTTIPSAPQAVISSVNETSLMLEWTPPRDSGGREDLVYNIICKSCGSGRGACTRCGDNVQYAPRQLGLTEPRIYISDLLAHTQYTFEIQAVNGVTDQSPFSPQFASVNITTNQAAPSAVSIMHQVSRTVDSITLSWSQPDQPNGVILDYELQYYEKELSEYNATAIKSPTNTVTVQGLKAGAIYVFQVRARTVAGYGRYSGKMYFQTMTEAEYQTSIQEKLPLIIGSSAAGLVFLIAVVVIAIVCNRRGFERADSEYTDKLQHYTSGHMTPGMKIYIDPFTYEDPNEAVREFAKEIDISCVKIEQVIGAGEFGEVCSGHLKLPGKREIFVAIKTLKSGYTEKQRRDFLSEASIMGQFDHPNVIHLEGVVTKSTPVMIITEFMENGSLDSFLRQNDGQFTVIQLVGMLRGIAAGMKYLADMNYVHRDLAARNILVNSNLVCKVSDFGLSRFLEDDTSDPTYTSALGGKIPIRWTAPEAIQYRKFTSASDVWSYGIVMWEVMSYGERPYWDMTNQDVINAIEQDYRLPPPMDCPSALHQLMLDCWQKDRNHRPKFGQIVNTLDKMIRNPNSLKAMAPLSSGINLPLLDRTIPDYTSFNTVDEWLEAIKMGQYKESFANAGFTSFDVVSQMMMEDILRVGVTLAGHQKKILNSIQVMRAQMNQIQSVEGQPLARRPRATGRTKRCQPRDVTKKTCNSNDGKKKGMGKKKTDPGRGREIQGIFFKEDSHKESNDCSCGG
Fyn, sequence (P06241 whole entry, looked up): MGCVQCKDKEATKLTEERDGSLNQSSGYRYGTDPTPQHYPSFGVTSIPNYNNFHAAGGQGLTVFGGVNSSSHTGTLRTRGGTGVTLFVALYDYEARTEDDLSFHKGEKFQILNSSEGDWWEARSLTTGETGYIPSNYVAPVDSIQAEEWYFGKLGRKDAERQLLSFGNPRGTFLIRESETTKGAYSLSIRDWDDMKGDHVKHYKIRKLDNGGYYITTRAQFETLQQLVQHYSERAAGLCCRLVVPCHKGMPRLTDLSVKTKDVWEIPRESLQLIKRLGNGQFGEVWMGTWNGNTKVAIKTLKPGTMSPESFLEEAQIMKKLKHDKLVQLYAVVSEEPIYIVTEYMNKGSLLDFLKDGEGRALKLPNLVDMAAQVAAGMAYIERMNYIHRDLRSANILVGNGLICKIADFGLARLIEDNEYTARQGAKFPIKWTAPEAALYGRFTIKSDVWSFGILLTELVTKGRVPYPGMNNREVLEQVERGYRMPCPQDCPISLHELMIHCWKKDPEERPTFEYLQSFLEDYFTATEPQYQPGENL

Sequence | SH2 binding enrichment [1] | SH2 binding enrichment [2] | SH2 binding enrichment [3] | phosphorylation enrichment [4] | phosphorylation enrichment [5] | phosphorylation enrichment [6] | phosphorylation enrichment [7] | phosphorylation enrichment [8] | phosphorylation enrichment [9] | phosphorylation enrichment [10] | phosphorylation enrichment [11] | phosphorylation enrichment [12] | phosphorylation enrichment [13] | phosphorylation enrichment [14] | phosphorylation enrichment [15] | phosphorylation enrichment [16]
SSWKLYPRMLR [HAO1_Y50_R46S] | 0.904 | 0.803 | 0.516 | 0.366 | 0.454 | 0.773 | 0.472 | 0.44 | 0.539 | 0.404 | 0.433 | 0.463 | 0.457 | 0.635 | 0.871 | 0.432
CTTIHYNFMCH [TP53_Y234_N239H_YF] | 1.73 | 1.92 | 1.75 | 0.471 | 0.478 | 0.866 | 0.552 | 0.507 | 0.543 | 0.533 | 0.441 | 0.547 | 0.558 | 0.75 | 0.97 | 0.444
EPYEVYRIVPE [IRF8_Y110_K108E] | 0.981 | 0.758 | 0.578 | 6.54 | 8.85 | 3.39 | 3.35 | 4.53 | 1.25 | 6.69 | 4.62 | 1.9 | 1.45 | 0.994 | 1.15 | 1.05
NTGYYYDLYGG [PTPN11_Y63_D61Y] | 1.33 | 1.56 | 5.74 | 4.67 | 3.4 | 1.73 | 11.3 | 13.9 | 0.971 | 5.76 | 6.15 | 10.6 | 11.3 | 4.73 | 1.25 | 8.78
PSDLLYIPDIQ [ITGA2B_Y845_L847P] | 0.847 | 0.288 | 0.539 | 0.808 | 0.494 | 2 | 1.37 | 1.21 | 1.89 | 0.917 | 0.921 | 1.1 | 1.35 | 2 | 1.77 | 0.953
SLHPGYNFRYA [P2RX7_Y291_Y288H] | 1.09 | 1.93 | 0.556 | 0.454 | 0.442 | 0.657 | 0.545 | 0.431 | 0.637 | 0.424 | 0.492 | 0.497 | 0.351 | 0.925 | 0.949 | 0.622
DFTSRYLSASD [PKHD1_Y828_N830S] | 0.694 | 0.713 | 0.527 | 0.329 | 0.42 | 0.79 | 0.605 | 0.535 | 0.546 | 0.466 | 0.453 | 0.564 | 0.549 | 0.625 | 0.846 | 0.46
DPYHVYIKNRV [KCNE3_Y95] | 0.874 | 0.762 | 1.09 | 2.15 | 0.375 | 0.973 | 0.628 | 0.407 | 0.832 | 1.02 | 0.958 | 0.567 | 0.544 | 0.872 | 1.02 | 0.396
IDPFIYTPFGS [CYP3A4_Y432_YF] | 0.861 | 1.06 | 0.604 | 6.49 | 1.67 | 0.927 | 0.779 | 0.584 | 0.773 | 6.96 | 5.82 | 0.549 | 0.686 | 0.73 | 1.12 | 2.86
CEETFYTMKVN [MASP2_Y401] | 0.842 | 0.788 | 0.522 | 1.41 | 0.738 | 1.48 | 0.935 | 0.546 | 0.9 | 1.04 | 0.756 | 0.625 | 0.766 | 1.51 | 1.4 | 0.529
YVPSFYHAFSG [ACTN4_Y265_S262P] | 1.2 | 0.673 | 0.997 | 2.17 | 0.407 | 0.81 | 1.17 | 1.32 | 1.06 | 1.82 | 1.94 | 1.03 | 2.09 | 0.794 | 0.99 | 7.65
LDVGEYCVPRG [BEX1_Y43_A40V] | 0.755 | 0.698 | 0.503 | 0.539 | 0.842 | 5.36 | 1.23 | 0.982 | 3.73 | 1.09 | 0.853 | 2.47 | 2.26 | 1.32 | 1.21 | 0.568
HCFAAYFQQGD [GPI_Y351_R347C] | 0.984 | 0.929 | 0.673 | 1.23 | 1.08 | 1.72 | 1.28 | 0.914 | 1.98 | 0.755 | 0.748 | 0.906 | 1.05 | 2.05 | 2.51 | 1.03
VDHFGYNKDDK [APOB_Y740_T741N] | 0.665 | 0.595 | 0.465 | 0.485 | 0.398 | 1.02 | 0.493 | 0.465 | 0.974 | 0.485 | 0.436 | 0.528 | 0.427 | 1.1 | 0.874 | 0.434
GTTIHYNFMCN [TP53_Y234_C229G_YF] | 0.715 | 0.613 | 0.603 | 0.467 | 0.63 | 1.12 | 0.822 | 0.544 | 0.888 | 0.477 | 0.532 | 0.718 | 0.743 | 1.13 | 1.32 | 0.465
ERNAHYRTPKI [PTK2B_Y699_R698H] | 0.707 | 0.611 | 0.521 | 0.387 | 0.424 | 0.586 | 0.473 | 0.524 | 0.615 | 0.367 | 0.332 | 0.561 | 0.583 | 0.559 | 0.495 | 0.37
GVTLLCYGRYN [ADGRD1_Y85_Y85C] | 0.753 | 0.806 | 0.486 | 0.97 | 0.563 | 1.31 | 0.908 | 0.435 | 0.975 | 0.708 | 0.508 | 0.682 | 0.707 | 1.23 | 1.55 | 0.397

Sequence | SH2 binding enrichment [1] | SH2 binding enrichment [2] | SH2 binding enrichment [3] | phosphorylation enrichment [4] | phosphorylation enrichment [5] | phosphorylation enrichment [6] | phosphorylation enrichment [7] | phosphorylation enrichment [8] | phosphorylation enrichment [9] | phosphorylation enrichment [10] | phosphorylation enrichment [11] | phosphorylation enrichment [12] | phosphorylation enrichment [13] | phosphorylation enrichment [14] | phosphorylation enrichment [15] | phosphorylation enrichment [16]
FPLELYERVRM [PRKCG_Y312_YF] | 0.832 | 0.722 | 0.485 | 0.488 | 2.39 | 1.39 | 0.932 | 0.988 | 0.804 | 0.629 | 1.24 | 0.982 | 1.94 | 1.09 | 1.28 | 0.444
PFGQWYESHFA [RPS8_Y113_R110G_YF] | 1.15 | 1.12 | 0.919 | 4.21 | 17.7 | 1.3 | 1.01 | 1.01 | 0.764 | 1.32 | 1.53 | 4.94 | 5.8 | 0.907 | 1.43 | 4.87
GRLFAYPDTHR [CAT_Y358] | 0.84 | 0.909 | 0.508 | 0.356 | 0.476 | 0.641 | 0.538 | 0.44 | 0.597 | 0.421 | 0.397 | 0.434 | 0.49 | 0.605 | 0.756 | 0.344
PDGREYIYVDP [PDGFRA_Y572_H570R] | 0.605 | 0.781 | 0.385 | 1.77 | 0.983 | 3.36 | 5.18 | 8.67 | 1.93 | 1.07 | 1.28 | 2.74 | 3.98 | 1.88 | 1.35 | 1.42
KVVVPYEPPEV [TP53_Y220_S215K] | 0.709 | 0.472 | 0.86 | 0.408 | 0.38 | 0.921 | 0.632 | 0.442 | 1.02 | 0.458 | 0.406 | 0.573 | 0.452 | 1 | 0.866 | 0.402
KFMVGYEMIAQ [GALT_Y339_L342I] | 0.914 | 0.884 | 7.36 | 0.427 | 0.487 | 1.03 | 0.723 | 0.492 | 0.696 | 0.444 | 0.507 | 0.569 | 0.58 | 0.956 | 1.06 | 0.457
LSTPEYGPKLK [TBC1D14_Y46_A43T] | 0.796 | 0.733 | 0.445 | 0.494 | 0.461 | 0.673 | 0.506 | 0.465 | 0.57 | 0.527 | 0.417 | 0.496 | 0.47 | 0.569 | 0.574 | 0.532
AQVDTYCRHNF [HLA-DRB1_Y107_A103Q_YF] | 1.06 | 0.834 | 0.621 | 0.434 | 0.628 | 0.676 | 0.472 | 0.668 | 0.59 | 0.433 | 0.446 | 0.479 | 0.369 | 0.673 | 0.959 | 0.528
SCRENYSDSEE [LEMD3_Y258] | 1.05 | 0.832 | 0.78 | 0.475 | 0.434 | 1.07 | 0.694 | 0.547 | 0.792 | 0.52 | 0.502 | 0.619 | 0.607 | 1 | 1.14 | 0.539
ATFRGYDSDNP [MMUT_Y146_H143Y_YF] | 1.01 | 0.718 | 0.572 | 0.425 | 0.553 | 0.904 | 0.531 | 0.571 | 0.666 | 0.51 | 0.528 | 0.513 | 0.424 | 0.811 | 0.896 | 0.373
ITKQEYDEAGP [ACTA1_Y364] | 0.869 | 0.786 | 7.7 | 0.422 | 0.494 | 1.14 | 0.689 | 0.475 | 0.679 | 0.563 | 0.51 | 0.488 | 0.553 | 0.881 | 1.08 | 0.423
LAIERYVVVCK [RHO_Y136] | 0.674 | 0.679 | 0.476 | 0.859 | 1.32 | 1.83 | 1.21 | 0.766 | 1.51 | 0.597 | 0.862 | 1.09 | 0.938 | 1.9 | 2.33 | 0.732
SNNYIYTTLGV [FAM83B_Y639_K640T] | 0.883 | 2.71 | 0.725 | 5.7 | 6.62 | 1.07 | 4.56 | 6.21 | 2.88 | 8.37 | 7.83 | 4.29 | 7.5 | 1.28 | 1.1 | 8.17
IEELTYVIKQD [STX5_Y137_I138V] | 0.654 | 0.602 | 0.354 | 0.691 | 0.54 | 1.23 | 0.954 | 0.515 | 0.705 | 0.494 | 0.528 | 0.659 | 0.643 | 1.18 | 1.26 | 0.363
DKATEYSQFMR [MAX_Y70_I71S_YF] | 0.824 | 0.688 | 0.512 | 0.873 | 0.392 | 0.84 | 0.397 | 0.449 | 0.519 | 0.733 | 0.631 | 0.541 | 0.39 | 0.524 | 0.683 | 0.423
ALEKTYNTFRS [B4GALNT2_Y538_YF] | 0.872 | 0.591 | 0.457 | 1.78 | 0.422 | 0.573 | 0.456 | 0.433 | 0.503 | 0.777 | 0.704 | 0.406 | 0.351 | 0.73 | 0.509 | 0.382
